Molecular target: microtubules polymerised from bovine brain tubulin (taxol-stabilised) (bovine) (UniProt Q6B856)
Experiment: stopped-flow mant-ADP release kinetics; kinesin·mant-ADP (1:1) mixed with varying microtubule concentrations plus MgATP, 298 K; fitted rate constants against microtubule concentration; apparent

- K0.5 (apparent microtubule dissociation constant): 21.3 µM
Substance: N255K point mutant of the human monomeric kinesin K349 construct (from UniProt P33176 1-349) (domain or fragment)

— PMC4383081
